Assay results reported in patent US20140178935A1 (AVEO PHARMACEUTICALS, published 2014).

Experiments:
[1] = biological target: T1, recombinant human HGF (R&D Systems, Catalog No. 294-HGN-025) (human, UniProt P14210 32-728); assay: SPR, captured antibody, HGF injected, 25 C
T1 construct: Mature HGF is a disulfide-linked heterodimer of alpha and beta chain cut from one precursor; also called rhHGF (R&D Systems); rhHGF
Description: Mouse anti-human immunoglobulins (Jackson Labs, Catalog No. 209-005) or rabbit anti-mouse immunoglobulins (BIAcore, Catalog No. BR-1005-14) were immobilized on carboxymethylated dextran CM4 sensor chips (BIAcore, Catalog No. BR-1006-68) by amine coupling (BIAcore, Catalog No. BR-1000-50) using a standard coupling protocol according to manufacturer's instructions. […] The analyses were performed at 25° C. and 37° C. using PBS (GIBCO, Catalog No. 14040-133) containing 0.05% surfactant P20 (BIAcore, Catalog No. BR-1000-54), and 2 mg/mL BSA (EMD, Catalog No. 2930) as running buffer.
The antibodies were captured in an individual flow cell at a flow rate of […]. Injection time was variable for each antibody to yield approximately 20 RU of antibody captured for each cycle. […] The dissociation phase was monitored for 15 or 90 minutes, depending on concentration. The surface of mouse anti-human immunoglobulins sensor chips was then regenerated with 10 mM Glycine-HCl, pH 2.2 (BIAcore, Catalog No. BR-1003-54) injected for 3 minutes at a flow rate of 60 μL/min before another cycle was initiated. The surface of rabbit anti-mouse immunoglobulins sensor chips was regenerated with 10 mM Glycine-HCl, pH 1.7 (BIAcore, Catalog No. BR-1003-54) injected for 3 minutes at a flow rate of 60 μL/min before another cycle was initiated.
Kinetic parameters were determined using the kinetic function of the BIAevaluation software with reference subtraction.

[2] = biological target: T1, recombinant human HGF (R&D Systems, …); assay: SPR, captured antibody, HGF injected, 25 C; remark: listed apart in the source
Description: Mouse anti-human immunoglobulins (Jackson Labs, Catalog No. 209-005) were immobilized on carboxymethylated dextran CM4 sensor chips (BIAcore, Catalog No. BR-1006-68) by amine coupling (BIAcore, Catalog No. BR-1000-50) using a standard coupling protocol according to manufacturer's instructions. The analyses were performed at 25° C. using PBS (GIBCO, Catalog No. 14040-133) containing 0.05% surfactant P20 (BIAcore, Catalog No. BR-1000-54), and 2 mg/mL BSA (EMD, Catalog No. 2930).
(§1) The antibodies were captured in an individual flow cell at a flow rate of 10 μL/min. Injection time was variable for each antibody to yield approximately 20 RU of antibody captured for each cycle. […] The dissociation phase was monitored for 15 or 90 minutes, depending on concentration. The surface then was regenerated with 10 mM Glycine-HCl, pH 2.2 (BIAcore, Catalog No. BR-1003-54) injected for 3 minutes at a flow rate of 60 μL/min before another cycle was initiated.
Kinetic parameters were determined using the kinetic function of the BIAevalutation™ software with reference subtraction.

[3] = biological target: T1, recombinant human HGF (R&D Systems, …); assay: SPR (BIAcore T100), antibody captured on mouse anti-human immunoglobulin CM4 chip, HGF 1.88, 3.75 and 7.5 nM injected, 25 C; three independent experiments
Description: Antigen-binding affinity and kinetics of interaction were assessed by surface plasmon resonance technology using a BIAcore T100 instrument. Mouse anti-human immunoglobulins (Jackson ImmunoResearch Labs, 209-005-098) were immobilized on carboxymethylated dextran CM4 sensor chips (BIAcore, Catalog No. BR-1005-34) by amine coupling (BIAcore, Catalog No. BR-1000-50) using a standard coupling protocol according to manufacturer's recommendations. The analyses were performed at 25° C. using PBS (GIBCO, Catalog No. 14040-133) containing 0.05% surfactant P20 (BIAcore, Catalog No. BR-1000-54), 2 mg/mL BSA (EMD, Catalog No. 2930) and 10 mg/mL CM-Dextran Sodium salt (Fluka, Catalog No. 86524) as running buffer.
as §1, with “on” for “in an”, “2.0” for “2.2”, “BR-1003-55)” for “BR-1003-54)”, “initiated. […] Determination of kinetic parameters was achieved using the kinetic function of the BIAevalutation software with reference subtraction.” for “initiated.”

T1 sequence (P14210 32-728 limits assumed): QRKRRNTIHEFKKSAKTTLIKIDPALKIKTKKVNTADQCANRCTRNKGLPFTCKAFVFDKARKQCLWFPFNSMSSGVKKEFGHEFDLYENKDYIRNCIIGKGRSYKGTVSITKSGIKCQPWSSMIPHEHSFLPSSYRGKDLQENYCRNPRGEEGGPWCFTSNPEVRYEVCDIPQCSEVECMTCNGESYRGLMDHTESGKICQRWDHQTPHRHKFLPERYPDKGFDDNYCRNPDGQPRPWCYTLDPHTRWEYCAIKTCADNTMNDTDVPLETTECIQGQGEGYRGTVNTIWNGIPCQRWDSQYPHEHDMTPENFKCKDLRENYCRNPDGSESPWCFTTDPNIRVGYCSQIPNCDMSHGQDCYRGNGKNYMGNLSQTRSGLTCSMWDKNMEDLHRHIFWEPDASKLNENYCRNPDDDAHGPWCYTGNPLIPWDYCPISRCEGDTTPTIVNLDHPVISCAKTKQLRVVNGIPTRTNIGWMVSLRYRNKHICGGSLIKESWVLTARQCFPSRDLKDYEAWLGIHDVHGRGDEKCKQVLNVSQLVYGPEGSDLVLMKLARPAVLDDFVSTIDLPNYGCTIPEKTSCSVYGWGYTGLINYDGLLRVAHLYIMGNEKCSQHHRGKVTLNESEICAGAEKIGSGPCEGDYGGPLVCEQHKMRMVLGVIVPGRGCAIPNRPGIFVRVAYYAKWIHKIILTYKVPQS

B1: sh2B8-9 (G1m(17,1)) = hu2B8 Hv5-51.1 + IgG1 constant region (G1m(17,1) allotype) plus hu2B8 Kv1-39.1 + Kappa constant region (Km(3) allotype, allele 2) (antibody)
heavy: not shown
light: DIQMTQSPSSLSASVGDRVTITCKASENVVSYVSWYQQKPGKAPKLLIYGASNRNTGVPSRFSGSGSGTDFTLTISSLQPEDFATYYCGQSYNYPYTFGQGTKLEIKRTVAAPSVFIFPPSDEQLKSGTASVVCLLNNFYPREAKVQWKVDNALQSGNSQESVTEQDSKDSTYSLSSTLTLSKADYEKHKVYACEVTHQGLSSPVTKSFNRGEC
Kd [1]: 8.1 pM | koff [1]: 1.7e-05 s⁻¹ | kon [1]: 2e+06 M⁻¹ s⁻¹ | Kd [2]: 8.1 pM | koff [2]: 1.7e-05 s⁻¹ | kon [2]: 2e+06 M⁻¹ s⁻¹ | Kd [3]: 8.1 pM | koff [3]: 1.7e-05 s⁻¹ | kon [3]: 2e+06 M⁻¹ s⁻¹
